These results are taken from article PMC8509414, “A Novel GUCA1A Variant Associated with Cone Dystrophy Alters cGMP Signaling in Photoreceptors by Strongly Interacting with and Hyperactivating Retinal Guanylate Cyclase” (International Journal of Molecular Sciences, 2021).

In data set [1] the target is T1, human recombinant ROS-GC1 (retinal guanylate cyclase 1) (human, UniProt Q02846 52-1103).
T1 sequence (looked up): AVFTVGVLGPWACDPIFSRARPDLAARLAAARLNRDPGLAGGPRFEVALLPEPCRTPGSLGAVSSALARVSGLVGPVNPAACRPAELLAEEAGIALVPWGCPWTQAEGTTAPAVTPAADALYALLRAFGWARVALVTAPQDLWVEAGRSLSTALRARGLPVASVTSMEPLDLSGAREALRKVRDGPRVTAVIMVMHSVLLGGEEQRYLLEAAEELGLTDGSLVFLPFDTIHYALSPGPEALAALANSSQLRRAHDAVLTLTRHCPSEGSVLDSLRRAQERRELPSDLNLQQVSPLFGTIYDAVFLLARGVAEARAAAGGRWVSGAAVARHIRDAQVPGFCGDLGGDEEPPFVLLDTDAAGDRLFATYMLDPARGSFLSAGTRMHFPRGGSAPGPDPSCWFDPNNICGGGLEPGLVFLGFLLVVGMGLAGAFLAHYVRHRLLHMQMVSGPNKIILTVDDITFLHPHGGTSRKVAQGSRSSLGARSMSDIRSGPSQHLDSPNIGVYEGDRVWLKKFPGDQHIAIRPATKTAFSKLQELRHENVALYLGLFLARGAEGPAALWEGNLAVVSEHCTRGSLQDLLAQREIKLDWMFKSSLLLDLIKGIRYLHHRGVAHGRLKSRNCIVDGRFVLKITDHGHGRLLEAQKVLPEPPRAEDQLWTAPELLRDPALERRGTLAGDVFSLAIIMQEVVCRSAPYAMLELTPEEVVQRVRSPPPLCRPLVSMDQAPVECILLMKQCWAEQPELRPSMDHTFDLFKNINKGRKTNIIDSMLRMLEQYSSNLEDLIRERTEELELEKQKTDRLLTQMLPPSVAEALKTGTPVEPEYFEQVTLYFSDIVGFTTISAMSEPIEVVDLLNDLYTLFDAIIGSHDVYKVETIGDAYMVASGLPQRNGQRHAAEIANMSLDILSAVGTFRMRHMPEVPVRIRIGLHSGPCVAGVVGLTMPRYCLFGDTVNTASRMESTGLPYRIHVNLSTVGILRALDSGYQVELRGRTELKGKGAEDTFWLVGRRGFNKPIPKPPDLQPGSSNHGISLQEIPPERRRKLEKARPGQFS
Nature of the data set: cell-based or functional assay.

Data set [2] deals with the molecule itself. Nature of the data set: SEC; analytical gel filtration, Superose 12 10/300, 20 mM Tris-HCl pH 7.5, 150 mM KCl, 1 mM DTT, 500 µM EGTA + 1 mM Mg2+ or 1 mM Mg2+ + 1 mM Ca2+, room temperature; protein 20 µM (methods) or ~45 µM; apparent MW from a calibration curve. In general terms: In gel filtration, larger molecules generally elute earlier.

As usually defined, the stoichiometry N is the number of molecules, sites or subunits per partner or assembly.

B1: N104H-GCAP1 (guanylate cyclase-activating protein 1, variant p.Asn104His, in the E6S background) (natural protein, human, UniProt P43080 1-201, looked up)
chain: MGNVMSGKSVEELSSTECHQWYKKFMTECPSGQLTLYEFRQFFGLKNLSPSASQYVEQMFETFDFNKDGYIDFMEYVAALSLVLKGKVEQKLRWYFKLYDVDGHGCIDRDELLTIIQAIRAINPCSDTTMTAEEFTDTVFSKIDVNGDGELSLEEFIEGVQKDQMLLDTLTRSLDLTRIVRRLQNGEQDEEGADEAAEAAG
modifications: N-terminal myristoylation (by co-expressed S. cerevisiae N-myristoyl transferase, yNMT)
notes: cDNA of GCAP1-E6S in pET-11a (NdeI/NheI); c.310A>C p.(Asn104His) introduced by site-directed mutagenesis; N104H is a patient variant; E6S was put in by the authors to give the consensus for myristoylation by yNMT; No tag is mentioned; Myristoylation on Gly2 implies loss of the initiator Met (surmise); also called N104H-GCAP1 variant; p.N104H; source: E. coli BL21 co-transformed with pBB131-yNMT
As to B1, the “GC activity (cGMP synthesis, HPLC) of HEK293 membranes with human GC as a function of N104H-GCAP1 concentration (0-10 µM) at <19 nM free Ca2+; EC50 = [N104H] at which GC activity is half-maximal” value in data set [1] came to 1600 nM. Further, the “stoichiometry N” value in data set [2] was 2.
